From paper PMC9940316 (2023)

Biological target: human plasma IgG1 (human, UniProt P01857 = IgG part)
Experiment: SPR; pH 7

B1: FcγRIIa (receptor)
chain: QAAAPPKAVLKLEPPWINVLQEDSVTLTCQGARSPESDSIQWFHNGNLIPTHTQPSYRFKANNNDSGEYTCQTGQTSLSDPVHLTVLSEWLVLQTPHLEFQEGETIMLRCHSWKDKPLVKVTFFQNGKSQKFSHLDPTFSIPQANHSHSGDYHCTGNIGYTLFSSKPVTITVQVPSMGSSSPMGIIVAVVIATAVAAIVAAVVALIYCRKKRISANSTDPVKAAQFEPPGRQMIAIRKRQLEETNNDYETADGGYMTLNPRAPTDDDKNIYLTLPPNDHVNSNN
- Kd: 1300 nM
